Patent publication US20030059769, “High affinity nucleic acid ligands to lectins” (published 2003)

Legend:
[1] = target: T1, P-selectin (PS-Rg) (Homo sapiens, UniProt P16109 P16109:42-321); test: filter; 37 C, HSMC; settings: tags: human IgG1 Fc fusion; chain copies: dimer; label: 32P
[2] = target: T1, P-selectin (PS-Rg); test: filter; HSMC
[3] = target: T1, P-selectin (PS-Rg); test: inhibition; sialyl-LewisX; settings: tags: human IgG Fc fusion, chain copies: 2 (stated dimer)
Experimental: The ability of evolved RNA pools or cloned ligands to inhibit the binding of PS-Rg to sialyl-Lewis^x was tested in competitive ELISA assays (C. Foxall et al., 1992, supra). For these assays, the wells of Corning (25801) 96 well microtiter plates were coated with 100 ng of a sialyl-Lewis^x/BSA conjugate, air dried overnight, washed with 300 μl of PBS(−) and then blocked with 1% BSA in HSMC for 60 min at room temperature. RNA ligands were incubated with PS-Rg in HSMC/1% BSA at room temperature for 15 min. After removal of the blocking solution, 50 μl of PS-Rg (10 nM) or a PS-Rg (10 nM)/RNA ligand mix was added to the coated, blocked wells and incubated at room temperature for 60 minutes. The binding solution was removed, wells were washed with 300 μl of PBS(−) and then probed with HRP conjugated anti-human IgG, at room temperature to quantitate PS-Rg binding. After a 30 minute incubation at room temperature in the dark with OPD peroxidase substrate (Sigma P9187), the extent of PS-Rg binding and percent inhibition was determined from the OD₄₅₀.

[4] = target: T2, L-selectin (LS-Rg) (Homo sapiens, UniProt P14151 P14151:39-332); test: filter; 37 C, SHMCK-140; settings: tags: human IgG2 Fc fusion, chain copies: dimer, label: 32P
T2 sequence: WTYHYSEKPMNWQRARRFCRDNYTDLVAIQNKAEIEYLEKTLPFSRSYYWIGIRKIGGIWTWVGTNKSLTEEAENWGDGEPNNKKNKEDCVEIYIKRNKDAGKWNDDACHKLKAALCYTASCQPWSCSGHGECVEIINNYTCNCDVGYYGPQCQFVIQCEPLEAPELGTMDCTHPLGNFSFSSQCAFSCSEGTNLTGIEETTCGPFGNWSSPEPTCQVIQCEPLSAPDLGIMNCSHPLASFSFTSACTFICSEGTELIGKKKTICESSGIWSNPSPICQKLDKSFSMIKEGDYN
Experimental: As described in SELEX Patent Applications, a nitrocellulose filter partitioning method was used to determine the affinity of RNA ligands for LS-Rg and for other proteins. Filter discs (nitrocellulose/cellulose acetate mixed matrix, 0.45 μm pore size, Millipore) were placed on a vacuum manifold and washed with 3 ml of SHMCK 140 buffer under vacuum. Reaction mixtures, containing ³²P labeled RNA pools and unlabeled LS-Rg, were incubated in SHMCK 140 for 10-20 min at 37° C., and then immediately washed with 3 ml SHMCK 140. The filters were air-dried and counted in a Beckman LS6500 liquid scintillation counter without fluor. Alternatively, binding studies employed 96 well micro-titer manifolds essentially as described in Example 13, paragraph E.
These calculations assume two ligand binding sites per chimera.

[5] = target: T1, P-selectin (PS-Rg); test: filter; HSMC, 37 C; settings: tags: human IgG Fc fusion; chain copies: 2 (stated dimer)
[6] = tags: human IgG Fc fusion, chain copies: 2 (stated dimer)

T1 sequence (P16109 42-321, one chain of several): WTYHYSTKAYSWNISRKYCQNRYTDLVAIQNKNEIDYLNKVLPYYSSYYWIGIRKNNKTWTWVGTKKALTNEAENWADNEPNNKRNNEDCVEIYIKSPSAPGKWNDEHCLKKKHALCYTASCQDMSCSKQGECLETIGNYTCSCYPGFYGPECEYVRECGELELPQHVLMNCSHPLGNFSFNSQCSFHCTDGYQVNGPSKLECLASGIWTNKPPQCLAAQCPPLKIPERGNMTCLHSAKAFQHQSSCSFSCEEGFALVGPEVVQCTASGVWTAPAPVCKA

B1: PF411 (ssRNA)
RNA: GGGAGACAAGAAUAAACGCUCAACAACCCAACCAUCUAGAGCUUCGAACCAUGGUAUACAAGGGAACACAAAAUUCGCGGAGGCUCCAACAGGCGGC
modifications: 2'-F on all C and U
Kd [1]: 13 pM

CGCUCAACGAGCCAGGAACAUCGACGUCAGCAAACGCGAGCG (ssRNA, 2'-F C and U) [PF377s2]
Kd [2, 6]: 45 pM
IC50 [3]: 4000 pM

B2: LF1514 (ssRNA)
RNA: GGGAGGACGAUGCGGUACCUCAAAUUGCGUGUUUUCAAGCAGUAUCAGACGACUCGCCCGA
modifications: 2'-F on all C and U
Kd ([4]; hairpin with 7-nt bulge): 130 pM

B3: PF386 (ssRNA)
RNA: GGGAGACAAGAAUAAACGCUCAAACAAGAGAGUCAAACCAAGUGAGAUCAGAGCGUUUAGCGCGGAAAGCACAUUCGACAGGAGGCUCACAACAGGC
modifications: 2'-F C and U
Kd [5]: 45.5 pM

B4: PF388 (ssRNA)
RNA: GGGAGACAAGAAUAAACGCUCAACUGGCAACGGGAUAACAACAAAUGUCACCAGCACUAGCGAGACGGAAGGUUCGACAGGAGGCUCACAACAGGC
modifications: 2'-F C and U
Kd [5]: 90 pM

B5: PF422 (ssRNA)
RNA: GGGAGACAAGAAUAAACGCUCAACGUCAAGCCAGAAUCCGGAACACGCGAGAAAACAAAUCAACGACCAAUCGAUUCGACAGGAGGCUCACAAAGGC
modifications: 2'-F on all C and U
Kd [1]: 172 pM

B6: LF1811 (ssRNA)
RNA: GGGAGGACGAUGCGGUAAUCUCUUAGGCAUCGCGUUAAUCGAGAUAGAUCACCGUCAGACGACUCGCCCGA
modifications: 2'-F on all C and U
Kd [4]: 190 pM

CACUCAACCGGCACCAGACUACGAUCAGCAUUGGCGAGUG (ssRNA, 2'-F C and U) [PF416s2]
Kd [2, 6]: 150 pM
IC50 [3]: 3000 pM

B7: PF395 (ssRNA)
RNA: GGGAGACAAGAAUAAACGCUCAACGAGCAAGGAACGAAUACAAACCAGGAAACUCAGCAACACGCGAGCAGUAAGAAUUCGACAGGAGGCUCACAACAGGC
modifications: 2'-F on all C and U
Kd [1]: 26 pM

B8: PF404 (ssRNA)
RNA: GGGAGACAAGAAUAAACGCUCAAUCAGCAGUAAGCGAUCCUAUAAAGAUCAACUAGCCAAAGAUGACUUAUUCGACAGGAGGCUCACAACAGGC
modifications: 2'-F C and U
Kd [5]: 47.5 pM

B9: PF396 (ssRNA)
RNA: GGGAGACAAGAAUAAACGCUCAAGCGGUCAGAAACAAUAGCUGGAUACAUACCGCGCAUCCGCUGGGCGAUAUUCGACAGGAGGCUCACAACAGGC
modifications: 2'-F on all C and U
Kd [1]: 24 pM

B10: PF373 (ssRNA)
RNA: GGGAGACAAGAAUAAACGCUCAACGAAUCAGUAAACAUAACACCAUGAAACAUAAAUAGCACGCGAGACGUCUUCGACAGGAGGCUCACAACAGGC
modifications: 2'-F on all C and U
Kd [1]: 49.5 pM

B11: LF1807 (ssRNA)
RNA: GGGAGGACGAUGCGGAGUCUUAGGCAGCGCGUUUUCGAGCUACUCCAUCGCCAGUCAGACGACUCGCCCGA
modifications: 2'-F on all C and U
Kd ([4]; hairpin with 7-nt bulge): 34 pM

B12: LF1523 (ssRNA)
RNA: GGGAGGACGAUGCGGUUCUUAAGCAGCGCGUCAAUCGAGCUAACCCAGACGACUCGCCCGA
modifications: 2'-F on all C and U
Kd [4]: 250 pM

B13: LF1615 (ssRNA)
RNA: GGGAGGACGAUGCGGCGUAACUUCAGCGGUGUGUUAAUCAAGCCUUACGCCAUCUCAGACGACUCGCCCGA
modifications: 2'-F on all C and U
Kd [4]: 320 pM

B14: PF381 (ssRNA)
RNA: GGGAGACAAGAAUAAACGCUCAAAGGAUCACACAAACAUCGGUCAAUAAAUAAGUAUUGAUAGCGGGGAUAUUCGACAGGAGGCUCACAACAGGC
modifications: 2'-F on all C and U
Kd [1]: 16.5 pM

B15: PF378 (ssRNA)
RNA: GGGAGACAAGAAUAAACGCUCAACGAUGAGCGUGACCGAAGCUAUAAUCAGGUCGAUUCACCAAGCAAUCUUAUUCGACAGGAGGCUCACAACAGGC
modifications: 2'-F on all C and U
Kd [1]: 51.5 pM

B16: PF398 (ssRNA)
RNA: GGGAGACAAGAAUAAACGCUCAACGAACCACGGGGAAAUCCACCAGUAACACGCGAGGCAAACAGACCCUCUUCGACAGGAGGCUCACAACAGGC
modifications: 2'-F C and U
Kd [5]: 46 pM

B17: PF416 (ssRNA)
RNA: GGGAGACAAGAAUAAACGCUCAACAGUUCACUCAACCGGCACCAGACUACGAUCAGCAUUGGCGAGUGAACACUUCGACAGGAGGCUCACAACAGGC
modifications: 2'-F C and U
Kd [5]: 63 pM

B18: LF1513 (ssRNA)
RNA: GGGAGGACGAUGCGGGCUCUUCAGCAACGUGUUAUCAAGUUAGCCCAGACGACUCGCCCGA
modifications: 2'-F on all C and U
Kd [4]: 160 pM

CUCAACGAGCCAGGAACAUCGACGUCAGCAAACGCGAG (ssRNA, 2'-F on all C and U; 2'-OMe purines at 11 positions) [PF377M6]
Kd ([2]; tags: human IgG1 Fc fusion, chain copies: dimer): 250 pM

B19: PF377M4 (ssRNA)
RNA: CUCAACGAGCCAGGAACAUCGACGUCAGCAAACGCGAG
modifications: 2'-F C and U; 2'-OMe G 7,9,13,14,21,24,28,36 and A 8,15,18,22,27,30,31,37 as listed
Kd [2, 6]: 1700 pM

CUCAACGAGCCAGGAACAUCGACGUCAGCAAACGCGAG (ssRNA, 2'-F C and U; 2'-OMe G 7,9,14,21,36 and A 8,15,18,22,27,31,37 as listed) [PF377M3]
Kd [2, 6]: 900 pM
IC50 [3]: 10000 pM

CUCAACGAGCCAGGAACAUCGACGUCAGCAAACGCGAG (ssRNA, 2'-F C and U, biotin) [PF377s1B]
Kd [2, 6]: 65 pM
IC50 [3]: 3000 pM

CUCAACGAGCCAGGAACAUCGACGUCAGCAAACGCGAG (ssRNA, 2'-F C and U) [PF377s1F]
Kd ([2]; tags: human IgG Fc fusion, chain copies: 2 (stated dimer), label: fluorescein (inferred)): 60 pM
IC50 ([3]; label: fluorescein (inferred)): 3000 pM

CUCAACGAGCCAGGAACAUCGACGUCAGCAAACGCGAG (ssRNA, 2'-F C and U; 2'-OMe G7 G9 G14 G21 A8 A15 A18 A22 A27 A31) [PF377M1]
Kd [2, 6]: 120 pM

B20: LF1508 (ssRNA)
RNA: GGGAGGACGAUGCGGGACCCUUAGGCAACGUGUUUUCAAGUUGGUCAGACGACUCGCCCGA
modifications: 2'-F on all C and U
Kd [4]: 500 pM

B21: LF1518 (ssRNA)
RNA: GGGAGGACGAUGCGGGCAAAUUGCAUGCGUUUUCGAGUGCUUGCUCAGACGACUCGCCCGA
modifications: 2'-F on all C and U
Kd [4]: 420 pM

B22: PF412 (ssRNA)
RNA: GGGAGACAAGAAUAAACGCUCAACGACCACAAUACAAACUCGUAUGGAACACGCGAGCGACAGUGACGCAUUUUCGACAGGAGGCUCACAACAGGC
modifications: 2'-F on all C and U
Kd [1]: 450 pM

B23: PF417 (ssRNA)
RNA: GGGAGACAAGAAUAAACGCUCAAAAAGACGUAUUCGAUUCGAAACGAGAAAGACUUCAAGUGAGCCCGCAGUUCGACAGGAGGCUCACAACAGGC
modifications: 2'-F C and U
Kd [5]: 69 pM

B24: LF1610 (ssRNA)
RNA: GGGAGGACGAUGCGGAGGGUCUUAAGCAGUGUGAUAAUCAAACUACUCUCCGUGUCAGACGACUCGCCCGA
modifications: 2'-F on all C and U
Kd [4]: 530 pM

B25: PF387 (ssRNA)
RNA: GGGAGACAAGAAUAAACGCUCAACGCACCAGGAACAACGAGAACCAUCAGUAAACGCGAGCGAUUGCAUGUUCGACAGGAGGCUCACAACAGGC
modifications: 2'-F C and U
Kd [5]: 16 pM

B26: LF1613 (ssRNA)
RNA: GGGAGGACGAUGCGGUGCUAUUCUUAAGCGGCGUGUUUUUCAAGCCAAUAUCAUCAGACGACUCGCCCGA
modifications: 2'-F on all C and U
Kd [4]: 34 pM

B27: PF380 (ssRNA)
RNA: GGGAGACAAGAAUAAACGCUCAACGAGCAAAAGUACUCACGGGACCAGGAGAUCAGCAACACGCGAGACGAAAUUCGACAGGAGGCUCACAACAGGC
modifications: 2'-F on all C and U
Kd [1]: 74.5 pM
